# B1: mitochondrial peroxiredoxin 3 (natural protein, human (endogenous in hMDMs), UniProt P30048 62-256, looked up)
# chain: APAVTQHAPYFKGTAVVNGEFKDLSLDDFKGKYLVLFFYPLDFTFVCPTEIVAFSDKANEFHDVNCEVVAVSVDSHFSHLAWINTPRKNGGLGHMNIALLSDLTKQISRDYGVLLEGSGLALRGLFIIDPNGVIKHLSVNDLPVGRSVEETLRLVKAFQYVETHGEVCPANWTPDSPTIKPSPAASKEYFQKVNQ
# notes: peroxiredoxin 3 (Prx3), mitochondrial, endogenous in human monocyte-derived macrophages; detected with rabbit anti-Prx3 (Abcam Ab73349); Cells were incubated in 80 mM methylmethanethiosulfonate (MMTS) for 10 min before lysis; also called Prx3; Prx; source: endogenous, hMDM (human monocyte-derived macrophage) lysate
# Target: the molecule itself
# Assay: Western blot of dimer and monomer bands after SDS-PAGE; hMDMs incubated with MAC (+/- anti-C7) or 5 uM MitoPQ for 3 hours; cells treated with 80 mM MMTS for 10 min at RT before lysis; % dimer = SI dimer/(SI dimer + SI monomer) x 100, expressed relative to untreated control
protein,measurement,value
B1,stoichiometry N,2

# — PMC9554752, “Complement membrane attack complex is an immunometabolic regulator of NLRP3 activation and IL-18 secretion in human macrophages” (Frontiers in Immunology, 2022)
